Reference: patent publication US20140234351A1, “CANCER VACCINES AND VACCINATION METHODS” (ImmunoCellular Therapeutics, Ltd., priority 2013, published 2014)

Molecular target: HLA-A*0201 molecules on TAP-deficient T2 cells (human)
Experiment: T2 cell binding assay, fluorescence index (MFI peptide - MFI untreated)/MFI untreated
Settings: remark: other sources report otherwise

B1: HER2/neu 773-782 HLA-A2 peptide (peptide)
peptide: VMAGVGSPYV
- MFI index: > 1.5
